Measured values as given in patent publication US20220062372A1, “METHODS FOR TREATING DISEASE AND REDUCING DRUG-INDUCED LIVER INJURY IN PATIENT POPULATIONS” (Ten Peaks LLC, priority 2020, published 2022).
Where no end group is shown, it is not given here.

Experiments:
[1] = HLA analysis of infliximab-DILI cases vs. matched controls and reference populations; type: in vivo, human; conditions: for OR vs. Ref 2 / OR vs. Ref 1 / OR vs. Control / OR: DILI after infliximab; for OR vs. Control: 25 Caucasian cases vs 60 controls; for OR: cases vs controls
Method: Samples from 25 Caucasians, 3 Africans, and 3 outliers subjects that had been treated with infliximab and had experienced DILI were obtained. These are referred to as “cases” here. These samples were compared to a set of 60 matched Caucasian and 6 matched African controls. […] The controls were matched for age, sex, ethnicity, and BMI where possible. Statistical analyses were performed to identify from these cases HLA alleles that are risk factors for the development of DILI following infliximab exposure. Significant alleles were determined using Fisher's Exact Test (FET) (p<0.05).
As a secondary comparison, the HLA profiles of the 25 Caucasian cases were compared to reference populations available at www.allelefrequencies.net. For calculating population presence rates, reference list entries were found by searching for “Caucasoid” ethnic origin subjects of gold-standard studies involving ≥100 subjects for alleles of interest on allelefrequencies.net. Sample sizes for the references represent the reported number of subjects directly typed for a given locus (i.e. USA NMDP European Caucasian reports 1,242,890 subjects typed for HLA-B and DRB1, but only 395,676 subjects typed for HLA-C; see Table 3).
In order to test for significant differences between the 31 Infliximab-DILI cases and the reference populations using Fisher's Exact Test (FET), counts of individuals carrying at least one copy of the allele in question were calculated one of two ways. If the population presence rate was available, the number of individuals was estimated by rounding the product of the population presence rate and the sample size for that HLA locus in that study. If no population presence rate was available, this number was estimated using the allele frequency rate and assuming Hardy-Weinberg equilibrium (HWE). That is, if the allele frequency is p, the number of individuals with the allele in question were calculated as [p^2+2*p*(1−p)]*Nsamples, where p^2+2*p*(1−p) represents the percentage of carriers if HWE is assumed, and N samples is the reference sample size for that locus.
The data sets individually analyzed were: Caucasian typed and/or Caucasian imputed; African typed and/or African imputed; and All Ethnicities typed and/or All Ethnicities imputed. “Typed only” means that only subjects with directly typed HLA alleles were considered in the indicated analysis. “Imputed only” means that only the imputed alleles (i.e., the subject's HLA profile was determined using known proxies for HLA subtypes in their genetic sequence) for each subject were used in the indicated analysis. “Imputed+Typed” means that all subjects were considered; here, directly typed HLA alleles were used if available, otherwise, imputed alleles were used.

[2] = background description of the marketed drug; cited from earlier work
other HLAs = assay: Peptide binding to other HLAs (overall conclusion of Example 2); design: species or system human
Method: A study was conducted to identify interactions between peptides present on the infliximab antibody and HLA-B*39:01. Peptides corresponding to heavy and light chain sequences of infliximab (chain H and L in PDB code 4G3Y) were predicted to bind class I HLA molecules based on the Stabilized matrix method (SMM) implemented in Immune Epitope Database and Analysis Resource (IEDB). Peptides predicted to bind with estimated Kd values less than 0.5 μM were considered candidate binders for: HLA-B*39:01, HLA-B*15:01, HLA-B*35:01, and HLA-B*57:01.
(§1) Refolding, characterization and purification of HLA complexes was performed as described (PMID: 12220628). Briefly, HLA-B*39:01 and β2-microglobulin were expressed in E. coli. Inclusion bodies were isolated, denatured in 8 M Urea and mixed with synthetic peptides derived from infliximab (Genscript) at a final concentration of 0.2 mg per ml protein, 6 M Urea, 20 mM Tris pH 8.0, 1 mM GSH, 10 mM GSSH for 24 hours, then dialyzed against 10 mM Tris pH 8.0 for 3 days. Samples concentrated to reduce the volume 10 fold, then loaded on a G200 superdex column calibrated with standards (http://www.bio-rad.com/webroot/web/pdf/1sr/literature/MSLIT-102E.pdf) in 10 mM Tris, 150 mM NaCl, at 0.75 ml per minute. OD280 was recorded for chromatographic analysis.
(§2) Results of the study are provided in FIGS. 2-4 and in Tables 6 and 7. In Tables 6 and 7, the IC50 (nM) for each peptide binding to HLA-B*39:01, HLA-B*05:01, HLA-B*35:01, or HLA-B*57:01 are shown in nM. […] In each of FIG. 2A-2D, the dotted line arrow points to the peak (or lack of a peak, for FIG. 2D) indicating peptide binding and proper refolding. […] The dotted line arrow points to the peak (or lack of a peak) indicating peptide binding and proper refolding. […] FIGS. 5A and 5B show an exemplary crystal structure of infliximab.

[3] = molecular target: T1, HLA-B*39:01 and β2-microglobulin (Homo sapiens, UniProt P01889, A182T/A93T/A95T/C349S/D138N/D201E/E176V/E187T/E204Q/K202T/Q94N/R155S/R180L/S121R/Y140F/Y91C); assay: Refolding of HLA complexes with synthetic peptides, G200 superdex chromatography (OD280); type: binding; conditions: for binding to HLA-B*39:01 (results of the studies taken together): overall conclusion of Example 2, Tables 6 and 7 and FIGS. 2-4; for peptide binding and proper refolding of HLA-B*39:01 (peak in chromatogram): FIG. 2A-2D, FIG. 3
T1 construct: made in house; host or cells: E. coli
Method: as §1, §2

## Infliximab: mouse-human chimeric monoclonal antibody that binds to human tumor necrosis factor (TNF)
[1]; B*39:01, 25 Caucasian cases vs England Northwest
  OR vs. Ref 2: 13.72
[1]; B*39:01, 25 Caucasian cases vs USA NMDP European Caucasian
  OR vs. Ref 1: 8.33
[1]; C*12:03, 25 Caucasian cases vs UK Pop 3
  OR vs. Ref 2: 4.56
[1]; C*12:03, 25 Caucasian cases vs USA NMDP European Caucasian
  OR vs. Ref 1: 3.02
[1]; DQA1*3:03
  OR vs. Control: 18.82
[1]; DQA1*3:03, 25 Caucasian cases vs Netherlands pop 2
  OR vs. Ref 2: 0.87
[1]; DQA1*3:03, 25 Caucasian cases vs USA Caucasian Bethesda
  OR vs. Ref 1: 0.92
[1]; DQB1*02:01
  OR vs. Control: 4.93
[1]; DQB1*02:01, 25 Caucasian cases vs USA Philadelphia Caucasian
  OR vs. Ref 2: 3.57
[1]; DQB1*02:01, 25 Caucasian cases vs USA San Antonio Caucasian
  OR vs. Ref 1: 2.54
[1]; DRB1*03:01
  OR vs. Control: 4.24
[1]; DRB1*03:01, 25 Caucasian cases vs USA NMDP European Caucasian
  OR vs. Ref 1: 2.25
[1]; DRB1*03:01, 25 Caucasian cases vs USA Philadelphia Caucasian
  OR vs. Ref 2: 3.57
[1]; HLA-A*02:01, African imputed + typed
  OR: 91.00
[1]; HLA-B*39:01, Caucasian imputed + typed
  OR: 25.33
[1]; HLA-C*07:01, All ethnicities imputed + typed
  OR: 2.77
[1]; HLA-C*12:03, Caucasian imputed + typed
  OR: 5.85
[1]; HLA-DPB1*04:02, African imputed + typed
  OR: 25.67
[1]; HLA-DQA1*03:01, All ethnicities imputed + typed
  OR: 0.28
[1]; HLA-DQA1*03:03, All ethnicities imputed + typed
  OR: 16.33
[1]; HLA-DQB1*02:01, All ethnicities imputed + typed
  OR: 5.21
[1]; HLA-DRB*03:01, All ethnicities imputed + typed
  OR: 4.50
[1]; in words
  risk of DILI following infliximab administration in subjects with HLA-B*39:01: associated with a higher risk of DILI
[2]
  hepatic adverse reactions reported in patients: known to cause hepatotoxicity, and even severe hepatic reactions that can be fatal or necessitate a liver transplant

## ZINBRYTA: CD25 (IL-2 receptor)-specific antibody used to treat multiple sclerosis
[2]
  hepatic adverse reactions reported in patients: can cause severe liver injury, including autoimmune hepatitis and liver failure

## VQWKVDNAL [SEQ ID NO: 8, VQWKVDNAL]
Other HLAs
  binding to other HLAs (results of the studies taken together): not to other HLAs
[3]
  binding to HLA-B*39:01 (results of the studies taken together): bind to HLA-B*39:01 at significant levels

## LQSSGLYSL [SEQ ID NO: 10, LQSSGLYSL]
Other HLAs
  binding to other HLAs (results of the studies taken together): not to other HLAs
[3]
  binding to HLA-B*39:01 (results of the studies taken together): bind to HLA-B*39:01 at significant levels

## Certolizumab: anti-TNF antibody used for the treatment of autoimmune diseases
[2]
  hepatic adverse reactions reported in patients: Elevated liver enzymes and hepatitis have been reported

## THQGLSSPV [SEQ ID NO: 1, THQGLSSPV]
Other HLAs
  binding to other HLAs (results of the studies taken together): not to other HLAs
[3]
  peptide binding and proper refolding of HLA-B*39:01 (peak in chromatogram): binding
  binding to HLA-B*39:01 (results of the studies taken together): bind to HLA-B*39:01 at significant levels

## TKGPSVFPL [SEQ ID NO: 2, TKGPSVFPL]
Other HLAs
  binding to other HLAs (results of the studies taken together): not to other HLAs
[3]
  peptide binding and proper refolding of HLA-B*39:01 (peak in chromatogram): binding
  binding to HLA-B*39:01 (results of the studies taken together): bind to HLA-B*39:01 at significant levels

## TYSABRI: integrin receptor antagonist indicated for multiple sclerosis and Crohn's disease
[2]
  hepatic adverse reactions reported in patients: Significant liver injury, including liver failure requiring transplant, has occurred in patients

## ACEVTHQGL [SEQ ID NO: 12]
[3]
  peptide binding and proper refolding of HLA-B*39:01 (peak in chromatogram): lack of binding
  binding to HLA-B*39:01 (results of the studies taken together): does not bind

## STYSLSSTL [SEQ ID NO: 7, infliximab light chain peptide]
Other HLAs
  binding to other HLAs (results of the studies taken together): not to other HLAs
[3]
  binding to HLA-B*39:01 (results of the studies taken together): bind to HLA-B*39:01 at significant levels

## GAZYVA: CD20-directed cytolytic antibody
[2]
  hepatic adverse reactions reported in patients: Hepatic enzyme elevations have occurred in CLL patients

## STSGGTAAL [SEQ ID NO: 11, infliximab heavy chain peptide]
Other HLAs
  binding to other HLAs (results of the studies taken together): not to other HLAs
[3]
  binding to HLA-B*39:01 (results of the studies taken together): bind to HLA-B*39:01 at significant levels

## ACTEMRA: interleukin-6 (IL-6) receptor antagonist
[2]
  hepatic adverse reactions reported in patients: Serious cases of hepatic injury have been observed

## Guselkumab: IL-23 blocker
[2]
  hepatic adverse reactions reported in patients: Elevated liver enzymes have been reported

## YSLSSTLTL [SEQ ID NO: 5, YSLSSTLTL]
Other HLAs
  binding to other HLAs (results of the studies taken together): not to other HLAs
[3]
  binding to HLA-B*39:01 (results of the studies taken together): bind to HLA-B*39:01 at significant levels

## CQQSHSWPF [SEQ ID NO: 9, CQQSHSWPF]
Other HLAs
  binding to other HLAs (results of the studies taken together): not to other HLAs
[3]
  binding to HLA-B*39:01 (results of the studies taken together): bind to HLA-B*39:01 at significant levels

## TQSPAILSV [SEQ ID NO: 6, TQSPAILSV]
Other HLAs
  binding to other HLAs (results of the studies taken together): not to other HLAs
[3]
  binding to HLA-B*39:01 (results of the studies taken together): bind to HLA-B*39:01 at significant levels

## golimumab: TNF blocker
[2]
  hepatic adverse reactions reported in patients: reports of severe hepatic reactions including acute liver failure

## ENTYVIO: integrin receptor antagonist for ulcerative colitis or Crohn's disease
[2]
  hepatic adverse reactions reported in patients: reports of elevations of transaminase and/or bilirubin
